The values that follow come from IntAct's records for PubMed 28864920.

To fix the notation:
B1: DNA repair protein XRCC3 (Homo sapiens), O43542 (parent)
chain: MDLDLLDLNPRIIAAIKKAKLKSVKEVLHFSGPDLKRLTNLSSPEVWHLLRTASLHLRGSSILTALQLHQQKERFPTQHQRLSLGCPVLDALLRGGLPLDGITELAGRSSAGKTQLALQLCLAVQFPRQHGGLEAGAVYICTEDAFPHKRLQQLMAQQPRLRTDVPGELLQKLRFGSQIFIEHVADVDTLLECVNKKVPVLLSRGMARLVVIDSVAAPFRCEFDSQASAPRARHLQSLGATLRELSSAFQSPVLCINQVTEAMEEQGAAHGPLGFWDERVSPALGITWANQLLVRLLADRLREEEAALGCPARTLRVLSAPHLPPSSCSYTISAEGVRGTPGTQSH
partner: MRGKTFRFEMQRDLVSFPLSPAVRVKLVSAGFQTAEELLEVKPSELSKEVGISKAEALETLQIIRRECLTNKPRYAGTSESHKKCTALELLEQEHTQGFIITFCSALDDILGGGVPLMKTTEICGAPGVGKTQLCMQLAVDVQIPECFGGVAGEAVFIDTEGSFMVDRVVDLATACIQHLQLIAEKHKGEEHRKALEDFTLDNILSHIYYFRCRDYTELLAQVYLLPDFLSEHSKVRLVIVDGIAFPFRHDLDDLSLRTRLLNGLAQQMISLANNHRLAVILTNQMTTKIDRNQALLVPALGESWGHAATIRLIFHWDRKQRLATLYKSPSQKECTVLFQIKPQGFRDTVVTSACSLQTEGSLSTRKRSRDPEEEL
B2: DNA repair protein XRCC3 (Homo sapiens), O43542 (parent)
chain: B1 chain
B3: DNA repair protein RAD51 homolog 3 (Homo sapiens), O43502 (parent)
chain: B1 partner
partner: B1 chain
B4: DNA repair protein RAD51 homolog 1 (Homo sapiens), Q06609 (parent)
chain: MAMQMQLEANADTSVEEESFGPQPISRLEQCGINANDVKKLEEAGFHTVEAVAYAPKKELINIKGISEAKADKILAEAAKLVPMGFTTATEFHQRRSEIIQITTGSKELDKLLQGGIETGSITEMFGEFRTGKTQICHTLAVTCQLPIDRGGGEGKAMYIDTEGTFRPERLLAVAERYGLSGSDVLDNVAYARAFNTDHQTQLLYQASAMMVESRYALLIVDSATALYRTDYSGRGELSARQMHLARFLRMLLRLADEFGVAVVITNQVVAQVDGAAMFAADPKKPIGGNIIAHASTTRLYLRKGRGETRICKIYDSPCLPEAEAMFAINADGVGDAKD
partner: B1 chain
B5: DNA repair protein RAD51 homolog 3 (Homo sapiens), O43502 (parent)
chain: B1 partner
partner: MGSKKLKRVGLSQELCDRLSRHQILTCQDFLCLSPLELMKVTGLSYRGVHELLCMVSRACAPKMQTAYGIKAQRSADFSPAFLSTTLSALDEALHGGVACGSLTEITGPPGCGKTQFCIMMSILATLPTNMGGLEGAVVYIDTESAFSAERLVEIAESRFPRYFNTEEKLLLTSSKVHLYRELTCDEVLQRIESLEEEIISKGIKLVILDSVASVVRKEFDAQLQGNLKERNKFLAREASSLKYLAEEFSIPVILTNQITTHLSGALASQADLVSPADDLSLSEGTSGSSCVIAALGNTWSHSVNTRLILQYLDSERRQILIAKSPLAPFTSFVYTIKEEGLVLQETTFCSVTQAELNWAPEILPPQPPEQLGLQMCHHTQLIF

The variants in one assay derive from B1. The following applies: with ra51c_human RAD51C.
In the case of MDLDLLDLNPRIIAAIKKAKLKSVKEVLHFSGPDLKRLTNLSSPEVWHLLRTASLHLRGSSILTALQLHQQKERFPTQHQRLSLGCPVLDALLRGGLPLDGITELAGRSSAGKTQLALQLCLAVQFPRQHGGLEAGAVYICTEDAFPHKRLQQLMAQQPRLRTDVPGELLQKLRFGSQIFIEHVADVDTLLECVNKKVPVLLSRGMARLVVIDSVAAPFRCEFDSQASAPRARHLQSLGATLRELSSAFQSPVLCINQVTEAMEEQGAAHGPLGFWDERVSPALGITWANQLLVRLLADRLREEEAALGCPARTLRVLSAPHLPPSSCSYTISAEGERGTPGTQSH [V337E], the “effect of a mutation on the interaction” value is recorded as “disrupting interaction strength”. On the same count and under the same terms, the entry for MDLDLLDLNPRIIAAIKKAKLKSVKEVLHFSGPDLKRLTNLSSPEVWHLLRTASLHLRGSSILTALQLHQQKERFPTQHQRLSLGCPVLDALLRGGLPLDGITELAGRSSAGKTQLALQLCLAVQFPRQHGGLEAGAVYICTEDAFPHKRLQQLMAQQPRLRTDVPGELLQKLRFGSQIFIEHVADVDTLLECVNKKVPVLLSRGMARLVVIDSVAAPFRCEFDSQASAPRARHLQSLGATLRELSSAFQSPVLCINQVTEAMEEQGAAHGPLGFWDERVSPALGITWANQLLVRLPADRLREEEAALGCPARTLRVLSAPHLPPSSCSYTISAEGVRGTPGTQSH [L297P] is “disrupting interaction strength”.

In another assay the parent is B2. The note with it: with rad51_human RAD51, Q06609.
On to MDLDLLDLNPRIIAAIKKAKLKSVKEVLHFSGPDLKRLTNLSSPEVWHLLRTASLHLRGSSILTALQLHQQKERFPTQHQRLSLGCPVLDALLRGGLPLDGITELAGRSSAGKTQLALQLCLAVQFPRQHGGLEAGAVYICTEDAFPHKRLQQLMAQQPRLRTDVPGELLQKLRFGSQIFIEHVADVDTLLECVNKKVPVLLSRGMARLVVIDSVAAPFRCEFDSQASAPRARHLQSLGATLRELSSAFQSPVLCINQVTEAMEEQGAAHGPLGFWDERVSPALGITWANQLLVRLPADRLREEEAALGCPARTLRVLSAPHLPPSSCSYTISAEGVRGTPGTQSH [L297P], for which the “effect of a mutation on the interaction” value was “disrupting interaction strength”. Same read-out and setting: the entry for MDLDLLDLNPRIIAAIKKAKLKSVKEVLHFSGPDLKRLTNLSSPEVWHLLRTASLHLRGSSILTALQLHQQKERFPTQHQRLSLGCPVLDALLRGGLPLDGITELAGRSSAGKTQLALQLCLAVQFPRQHGGLEAGAVYICTEDAFPHKRLQQLMAQQPRLRTDVPGELLQKLRFGSQIFIEHVADVDTLLECVNKKVPVLLSRGMARLVVIDSVAAPFRCEFDSQASAPRARHLQSLGATLRELSSAFQSPVLCINQVTEAMEEQGAAHGPLGFWDERVSPALGITWANQLLVRLLADRLREEEAALGCPARTLRVLSAPHLPPSSCSYTISAEGERGTPGTQSH [V337E] is “disrupting interaction strength”.

The variants in the next assay derive from B3. The note with it: with xrcc3_human XRCC3, O43542.
As to MRGKTFRFEMQRDLVSFPLSPAVRVKLVSAGFQTAEELLEVKPSELSKEVGISKAEALETLQIIRRECLTNKPRYAGTSESHKKCTALELLEQEHTQGFIITFCSALDDILGGGVPLMKTTEICGAPGVGKTQLRMQLAVDVQIPECFGGVAGEAVFIDTEGSFMVDRVVDLATACIQHLQLIAEKHKGEEHRKALEDFTLDNILSHIYYFRCRDYTELLAQVYLLPDFLSEHSKVRLVIVDGIAFPFRHDLDDLSLRTRLLNGLAQQMISLANNHRLAVILTNQMTTKIDRNQALLVPALGESWGHAATIRLIFHWDRKQRLATLYKSPSQKECTVLFQIKPQGFRDTVVTSACSLQTEGSLSTRKRSRDPEEEL [C135R], the “effect of a mutation on the interaction” value is listed as “disrupting interaction strength”.

In another assay the parent is B4. The note with it: with xrcc3_human XRCC3, O43542.
For the variant MAMQMQLEANADTSVEEESFGPQPISRLEQCGINANDVKKLEEAGFHTVEAVAYAPKKELINIKGISEAKADKILAEADKLVPMGFTTATEFHQRRSEIIQITTGSKELDKLLQGGIETGSITEMFGEFRTGKTQICHTLAVTCQLPIDRGGGEGKAMYIDTEGTFRPERLLAVAERYGLSGSDVLDNVAYARAFNTDHQTQLLYQASAMMVESRYALLIVDSATALYRTDYSGRGELSARQMHLARFLRMLLRLADEFGVAVVITNQVVAQVDGAAMFAADPKKPIGGNIIAHASTTRLYLRKGRGETRICKIYDSPCLPEAEAMFAINADGVGDAKD [A79D], the “effect of a mutation on the interaction” value was “decreasing interaction strength”.

Turning to MAMQMQLEANADTSVEEESFGPQPISRLEQCGINANDVKKLEEAGFHTVEAVAYVPKKELINIKGISEAKADKILAEAAKLVPMGFTTATEFHQRRSEIIQITTGSKELDKLLQGGIETGSITEMFGEFRTGKTQICHTLAVTCQLPIDRGGGEGKAMYIDTEGTFRPERLLAVAERYGLSGSDVLDNVAYARAFNTDHQTQLLYQASAMMVESRYALLIVDSATALYRTDYSGRGELSARQMHLARFLRMLLRLADEFGVAVVITNQVVAQVDGAAMFAADPKKPIGGNIIAHASTTRLYLRKGRGETRICKIYDSPCLPEAEAMFAINADGVGDAKD [A55V], the “effect of a mutation on the interaction” value is given as “with no effect”.

The variants in another assay derive from B5. The following applies: with ra51b_human RAD51B.
In the case of MRGKTFRFEMQRDLVSFPLSPAVRVKLVSAGFQTAEELLEVKPSELSKEVGISKAEALETLQIIRRECLTNKPRYAGTSESHKKCTALELLEQEHTQGFIITFCSALDDILGGGVPLMKTTEICGAPGVGKTQLRMQLAVDVQIPECFGGVAGEAVFIDTEGSFMVDRVVDLATACIQHLQLIAEKHKGEEHRKALEDFTLDNILSHIYYFRCRDYTELLAQVYLLPDFLSEHSKVRLVIVDGIAFPFRHDLDDLSLRTRLLNGLAQQMISLANNHRLAVILTNQMTTKIDRNQALLVPALGESWGHAATIRLIFHWDRKQRLATLYKSPSQKECTVLFQIKPQGFRDTVVTSACSLQTEGSLSTRKRSRDPEEEL [C135R], the “effect of a mutation on the interaction” value is listed as “disrupting interaction strength”.
